Consider six compounds from patent US20100158890A1, “USE OF THROMBIN MUTANTS TO INHIBIT THE ANTICOAGULATION EFFECT OF THROMBIN INHIBITORS” (priority 2006, published 2010).

Where only a bound is given, the exact number is not on record here.

One series relates to whole blood. Kind of series: Thrombelastography (TEG) of clot formation in recalcified whole blood. Type of series: biochemical, human. Conditions: for effect on TEG amplitude (strength of clot): anticoagulant alone: bivalirudin 5 μg/ml, lepirudin 1 μg/ml, argatroban 0.5 μg/ml. How it is done:
(§1) For plasma collection, whole blood samples (5 ml, in 3.2% trisodium citrate) were obtained after institutional approval and informed written consent from 6 volunteers that had not received any medication in the preceding 2 weeks. For APTT and thrombin generation experiments blood was centrifuged to obtain platelet poor plasma (PPP) for 20 min at 3000×g. PPP was used immediately or stored for not more than a couple of days at −20° C. For TEG® measurements, whole blood in citrate was used after recalcification within 5 min from collection. In all experiments, the final concentration of recombinant thrombin mutant was 5 μg/ml.
The viscoelastic measurement of clot formation was evaluated using Thrombelastogarphy (TEG®, Haemoscope, Niles, Ill.). […] For TEG® measurements, 360 μl aliquots of the samples were transferred to disposable cups containing […] 0.4 M CaCl2. Effects of W215A/E217A on TEG® variables were evaluated after adding this thrombin mutant (5 μg/ml, final concentration) to respective samples. The TEG® variables, the reaction time (in minutes) which represents the onset of clot formation, and maximum amplitude (in mm) which reflects the strength of clot were compared for different groups (Kawasaki et al. (2004) Anesthesia & Analgesia, 99:1440-1444).

For a further series, the system named is platelet-poor plasma. Kind of series: Thrombin generation monitoring by Thrombinoscope in platelet-poor plasma. Type of series: biochemical, human. To be noted: for effect on onset and peak of thrombin generation: anticoagulant alone in plasma. The procedure:
Fluorogenic substrate (Z-Gly-Gly-Arg-AMC HCl, molecular weight 616.07) for thrombin generation assay was obtained from Bachem (Switzerland). HEPES (N-2-hydroxyethyl piperazine-N′-2-ethanesulfonic acid), CaCl2, BSA (bovine serum albumin) and DMSO (dimethyl sulfoxide) were from Sigma (Sigma, St Louis, Mo.). Tissue factor was dissolved in 10 ml sterile water and then further diluted with working HEPES buffer (20 mM HEPES, 140 mM NaCl, 5 mg/ml BSA), (1:75). For the preparation of Fluca-buffer 1.75 ml HEPES buffer (pH 7.35, 20 mM HEPES, 60 mg/ml BSA was added to 0.2 ml of 1 M CaCl2 in a glass test tube, mixed, and warmed up for few minutes at 37° C. Just before use 50 μl of 100 mM fluorogenic substrate made in DMSO was added to the HEPES-CaCl2 solution and mixed to dissolve. This buffer now contains 2.5 mM substrate and 100 mM CaCl2.
as §1
In order to evaluate this complex regulation of thrombin generation, the Thrombinoscope® system, which enables automated acquisition of thrombin generation time courses in platelet-rich plasma or in platelet-poor plasma (Hemker et al. (2003) Pathophysiology of Haemostasis & Thrombosis, 33:4-15). The method for the automated estimation of endogenous thrombin potential using a commercially available fluorogenic substrate (Z-GlyGly-Arg-AMC) has been described in detail elsewhere (Hemker et al. (2003) Pathophysiology of Haemostasis & Thrombosis, 33:4-15). Briefly, for the thrombin generation experiments, 80 μl of PPP, and 20 μl of the thrombin generation trigger are added to wells of 96-well microtiter plate (Microfluor2, Labsystems, Finland), followed by 20 μl of substrate-calcium chloride buffer. The reaction is monitored using microplate fluorometer (Fluoroskan Ascent, Labsystems, Finland) set at 390 nm (excitation wavelength) and 460 nm (emission wavelength). […] Additionally, heparin (0.2 or 0.5 U/ml) was also evaluated. Heparin reversal with an appropriate concentration of protamine was used for comparison (1 mg of protamine for each 100 units (1 mg) of heparin). To evaluate the effects of the thrombin mutant on protein C activation (Regnault et al. (2003) Thrombosis and Haemostasis, 89:208-212), soluble thrombomodulin (0.75 μg/ml, final concentration) was added to the sample plasma containing the thrombin mutant.

The target of another series is α-thrombin (Homo sapiens, UniProt P00734). Conditions: association constant for α-thrombin and inhibitor; cited from earlier work.
The conditions of series [1]: off-pump coronary surgery, cited from earlier work.
In series [2] the test system is lepirudin (Refludan, Berlex).
The test system of series [3] is bivalirudin (Angiomax, Medicines Company).

With `CC1CNc2c(cccc2S(=O)(=O)N[C@@H](CCCNC(=N)N)C(=O)N2CC[C@@H](C)C[C@@H]2C(=O)O)C1` (stereo partly drawn) [Argatroban, argatroban], the “effect on TEG amplitude (strength of clot)” value (shortened to “effect on TEG amplitude”) with whole blood is “reduced”. The “effect on onset and peak of thrombin generation” value (shortened to “effect on onset and peak”) in the series on platelet-poor plasma is “prolonged the onset and reduced the peak”. Further, the peak thrombin level with platelet-poor plasma (argatroban at 0.5 and 1 μg/ml, with W215A/E217A added (FIG. 6D)) was greater than 100 nM.

Take lepirudin: the “effect on TEG amplitude” value in the series on whole blood is “minimally affected”. Besides, the “effect on onset and peak” value in the series on platelet-poor plasma is given as “prolonged the onset of thrombin generation, but not the peak level”. For the same compound, the kon at α-thrombin is 290 10^6 M^−1s^−1.

As to Protamine sulfate, the “reversal of heparin on TEG (onset, clot strength)” value in the series with whole blood (protamine sulfate 5 μg/ml, heparin 0.5 U/ml) is “restores the onset completely, and to a lesser extent clot strength”. Also, the “effect on thrombin generation in the presence of heparin” value with platelet-poor plasma (heparin 0.2 U/ml, W215A/E217A 5 μg/ml or protamine sulfate 2 μg/ml) is reported as “reversed the peak level”.

Turning to bivalirudin, the “effect on TEG amplitude” value in the series on whole blood was “minimally affected”. Further, in the series on platelet-poor plasma, the “effect on onset and peak” value is “prolonged the onset of thrombin generation, but not the peak level”. Moreover, the kon with α-thrombin is on record as 430 10^6 M^−1s^−1. Moreover, the “range of blood loss” value in series [1] (n=50) is given as 320-4,909 ml. The “12-hour post-operative chest tube drainage, median” value in series [1] is 793 mL.

With human thrombin mutant W215A/E217A, in series [2], the “TEG reaction time and amplitude in lepirudin-treated whole blood” value was “With addition of W215A/E217A (5 µg/ml), both reaction time and amplitude variables were reversed to normal for all DTIs”; the “activated partial thromboplastin time (APTT) in lepirudin-treated plasma” value is reported as “The addition of W215A/E217A to plasma shifted APTT values toward normal ranges”; the “onset (latency) of thrombin generation, Thrombinoscope, lepirudin-treated plasma” value is reported as “W215A/E217A was effective in shortening prolonged latency of thrombin generation”. Besides, in series [3], the “TEG reaction time and amplitude in bivalirudin-treated whole blood” value is “With addition of W215A/E217A (5 µg/ml), both reaction time and amplitude variables were reversed to normal for all DTIs”; the “activated partial thromboplastin time (APTT) in bivalirudin-treated plasma” value is on record as “The addition of W215A/E217A to plasma shifted APTT values toward normal ranges”; the “onset (latency) of thrombin generation, Thrombinoscope, bivalirudin-treated plasma” value is recorded as “W215A/E217A was effective in shortening prolonged latency of thrombin generation”.

Take “catalytic-site blocked thrombin (thrombin saturated with Phe-Pro-Arg-chlormethylketone)”: the “activated partial thromboplastin time (APTT) in lepirudin-treated plasma” value in series [2] was “The active site blocked thrombin (FPR-TH) had no effect on APTT prolonged with either DTIs or heparin”. Further, the “activated partial thromboplastin time (APTT) in bivalirudin-treated plasma” value in series [3] was “The active site blocked thrombin (FPR-TH) had no effect on APTT prolonged with either DTIs or heparin”.
